According to a protein production outcome set (Wang et al. 2014):

Experiment: label from the status in PepcDB records

Sequence	protein production
MADTSPSACLVFQGSGFYAKLSDFRACLTGFMLPLSPSLLPTLAAAVLYAAATFYQGSRLATGAKANKRLLVTLGILALLAHAASLLTHLLTPVGLGLDFFSAASLIAAAVIALTLLACWRIPVENLLVLLFPLGALTALLAQFVPTGTVPVIDEEPGILAHILLSILAYGMFTIAVFQALLLLVQDHQLKNKHPSGLIRNFPPLQTMESLLFGFLWAGWTLLSLSLISGWLFVENLFAQHLVHKTLLACLAWVVFSVLLWGRNRLGWRGHKAIRWTLAGFCLLMLAYFGSKLVREYILHI	failed
MADYNNAVVFYDTSGIEYSKQIKKTLERGFERECFLINLDNRENTLSRLNLAMKTSKYVIFLFSSMYSNENMLDEAKTAFNSDKHIISLKLDDPELKKQISIHQSEFEDNYGLSKKVNDEVEKLKKMEKKGTDFVESQISFNMGNIYFNFGKYAEAIRCYKKAVKIIPDFVDALHNFNSLSNMNLFDMGEEPKKPVLYKDVTIDELVPDIFSNTVQKEPEEPQKYSELEPEELEDLILDGEIGENLEEIGSEDELTEKIDDKLPEIDESKDKSKAQPEDELNETFEEGIEYETFEVIDAEEKNEISDENLEISSLEPEFEEKSIFKLEKETEQPELEENLEPVLEVPEELVEDVEILDASEEDIEKELENQEVIIEEKLETLDELLDKSELESELVEEHTYEIDNNEFLEILSFANTLYESGDFEAAKTEYKKAIALNPGNSEVHNHYGCLLEYLEKYGEAEIEFKKAVALDGSNSKAYNNLATFLAKSEKYDEAEEHYKKAIEIAPDYWAAIYNLAAMYAALKRYDEAVAQVKSMVKIFRSDGNIKEVLELKKLIKHLKKLKIQKS	failed
MAEARRDGRLPLTLVGGFLGAGKSTWLRHQLHAGRFARHHLLVNEAAETPVDNLLLGGAARLTLLAGGCACCEGQAQLRAALRAICETESGPEAGGIEGILLETSGLADPGAIAAMVAADPVLVRRLALAETLVLVDAAHGTAQLAAEPLARAQIEAAGRLVLTKPAAAPDLARLAATLRALAPEAELSAAERGVPVPLPAGAAEPYPLPPLAAAAPIRPHRLRIGAEGGWVALSTWLSALLQARGEDVVRVKGVVRTPAGRLLLQSVRRMVQPPETLPEGADLPGPAPPPRRERSC	failed
MAEDEIVVEEEQSQPQEITPVPPSSSSSPSLVVEDDDEMKLKHLEFIQVAAVYFAACFSTLYELAKDNAGPLKLGVENIEDCVRTVLAPLYEKFHDVPFKLLLFVDRKVDDVFFDVETYVPSLVKQASSQALTVATEVQRTGVVDTTKSIARSVRDKYEPAAEYYAATLWRLLNQLPLFPEVAHLVIPTAFYWSEKYNDAVRYVGDRDYFGAEYLPMIPIEKISDILEQDQCRAD	failed
MAEDTYEEECDYLFKAVLIGDSAVGKSNLLSRFSKDEFRFDSKPTIGVEFAYRNVHVGDKIIKAQIWDTAGQERFRAITSSYYRGALGALLIYDITRRTTFDNIKKWLFELRDFANPETVVVLVGNKSDLRQSREVEEDEGKTLAESEGLYFLETSALENVNVEEAFLVMIGRIHEVVTQRIASENKSNGAATPHINGNGNGTVLPVGKEIVNIHEVTATQPLLSSSSNCCFK	failed
MAEELDDLTKFEAKGTSHHLPVGWLALFWGLIVFGAYYYWAYSPALGGWSQAKDLETGGASSGANLLWTIAFTAVPALVAIWMGLTQKKKAR	failed
MAEELLAPEVIADLKARAISQPLVEHIYTADPSAHVFNGKIYIYPSHDIEAGIPFNDNGDHFGMEDYHVISLDSPDSPAVDNGVALHVKDVAWAERQMWPPDAAHKNGKYYLYFPAKRANGIFQIGVAVGDSPIGPFKAEPEAIKGSYSIDPAVFEDNDGEYYMYYGGIWGGQLQNYRNNQYDANRGEPADNEPALGPIVARLTADMKEFAEAPREIQILDQDGKPLLAGDHDRRFFEASWVHKYNDQYYFSYSTGNTHFLCYATGDNPYGPFTYRGQILTPVIGWTTHHSIAEYQGQWYLFYHDCVLSKGITHLRSVKMAPLTHKADGSIETITPYRD	failed
MAEFLHRFAQGFAALNKDNLDQVAELYSEDVSFSDPMHDIHGLAAMQRYFAELYANVRDLHFDFHAFDEVRPGEGYLVWTMSYSHPRLAGGRTIRVEGCSHLKWRDKVYRHRDYFDAGALLYEHLP	failed
MAEFTHLVNERRSASNFLSGHPITKEDLNEMFELVALAPSAFNLQHTKYVTVLDQDVKEKLKQAANGQYKVVSSSAVLLVLGDKQAYQQAADIYEGLKVLGILNKQEYDHMVQDTVSFYENRGEQFKRDEAIRNASLSAMMFMLSAAAAGWDTCPMIGFDAEAVKRILNIDDQFEVVMMITIGKEKTESRRPRGYRKPVNEFVEYM	not failed
MAEHAPHFTITPLGGLGEIGLNCQVWSTADSTVLIDCGLMFPDDYHLGVDVVIPRFDHILQQRDKVRGIILTHGHEDHIGALPWLVPHLRGIPIFGSRFTLALVEHKLREHGLADRVEFVPVTPGTPLALGDMTFHFLPVCHSIIEGYAVGVETPVGRVLHTGDFKIDPHPLEGSGTDLDLFRSFAGDEGVRLLLSDSTNIEREGHSLPEREILSSFRHIFTEAQGRIVITLFSSHIQRIQEVFDLAAEFGRTVVVSGRSLMTNIELAREHGFLRVPPALHMDAAGLPPVADRDMVLLVTGSQGEPLSALSRITMGEHKHLTIHEGDTVVMSSRIIPGNARAITRLINQIYRLGAEVYYDKFRAIHASGHAHRDELRAMIETMRPQCFVPVHGEYRHLVKHARLAQECGVAPERAFILENGDPLTLLPQGVRLGERIHVESILVDGKGVGDVGHSVLKERHILGGEGMVIVVLVVDEVTWDVLHGPEMLSKGFVFEQHYNHVLEDAKCIVLDIFENIPPGETERLQDRIRSALRRFFRKVLERDPIVVPVITTI	failed
MAEHIITLVLSGERLDVTTSTPFVVALRDLLYEGDWELLKEDMKKKENIMKEVQTCEKLEKVVHLDETVYEPLIFPEFQEWLREENITPKDFKNVSLKGLYDLALEYADRNLYDIAHDIIKFMLDIDENYAPAYELKGSLLVEQGKIEEGIKFLDKAVEIDPWLVQAYASLGEAYYNLGDYEKAIHYWERELEYNPNDKITYFMITEAYYEMNRKDLAVKTLERLLEIDPDNIPALYQLSQLYRELGNEEKAREMEEKIMNCKPKYPTELEPWARVMLKHGRYKEVAEELEKIVESSPLNTLARLLLVVPYVKLGQIDKAREILDDIGQSNFWYYYGKKEILDELLTEEEKRACGIS	failed
MAEILRAENIKKVIRGYEILKGISLSVKKGEFVSIIGASGSGKSTLLYILGLLDAPTEGKVFLEGKEVDYTNEKELSLLRNRKLGFVFQFHYLIPELTALENVIVPMLKMGKPKKEAKERGEYLLSELGLGDKLSRKPYELSGGEQQRVAIARALANEPILLFADEPTGNLDSANTKRVMDIFLKINEGGTSIVMVTHERELAELTHRTLEMKDGKVVGEITRV	not failed
MAEKLLHTAESDAGIGSWVLHMESGRLEWSQAVHDIFGTDSATFDATEDAYFQRVHPDDRARVRRELDRHVLGDRPFDVEYRIVRPDGQVRELLERNHIQRQASGQVDHLWGTVIDMTEHKQ	not failed
MAEKNAYTVAQLADEYFERMIAGRWKHPNIVRSRIEKDIKPAIGSLKVEDVKPRHIDDVLKAVMKRGAPSIANDTLRWLKRMFNYAIKRHIIEYNPAAAFDPGDAGGKEKSLEHHHHHH	not failed
MAEKSCSLTEFVGTAIGDTLGLVIANVDTALLDAMKLEKRYRSIGILGARTGAGPHIMAADEAVKATNTEVVSIELPRDTKGGAGHGSLIILGGNDVSDVKRGIEVALKELDRTFGDVYGNEAGHIELQYTARASYALEKAFGAPIGRACGIIVGAPASVGVLMADTALKSANVEVVAYSSPAHGTSFSNEAILVISGDSGAVRQAVTSAREIGKTVLATLGSEPKNDRPSYI	not failed
MAENAWVRVCALQELPELGARVLDVEGLPPIAIFRTASDQVFALRDRCPHKGGPLSQGIVAGETVTCPLHGWAIALQSGQACAPDVGCAPRYPVKVEAGAVWIVLQPVLQADAVAEPAALEHHHHHH	failed
MAENKLGRDIPRKYANQYGVFEGELAHIKSYKESSRQVKPVKPSDDKLLSSIHEAIEKTRLKDGMTISFHHHFREGDYVMNMVLDEIAKMGIKDISIAPSSIANVHEPLIDHIKNGVVTNITSSGLRDKVGAAISEGIMENPVIIRSHGGRARAIATDDIHIDVAFLGAPSSDAYGNANGTRGKTTCGSLGYAMIDAKYADQVVIVTDTLVPYPNTPISIPQTDVDYIVVVDAIGDPEGIAKGATRYTKNPKELLIAEYAAKVITSSPYYKEGFSFQTGTGGASLAVTRFMREQMIKDDIKANFALGGITNAMVELLEEGLVDKILDVQDFDHPSAVSLDRNAEKHYEIDANMYASPLSKGSVINQLDICVLSALEVDTNFNVNVMTGSDGVIRGASGGHCDTAFAAKMSLVISPLVRGRIPTFVDKVNTVITPGTSVDVVVTEVGIAINPNRPDLIEYFKDLKVPQLTIEELKEKAYAIVGNPQPIQYGDKIVALIEYRDGSLIDVVRNVLEHHHHHH	not failed
MAEPGGHEGPASTQRAKVCETHTAMVFFVEDRVYKRKKPVDLGFLDYTTRSSRRAVCEREIELNRRFAPDVYLGLGELRTPGEQEAEPLVVMRRMPDDRRLSHLVRTGAPVADDLRAVARHLAAWHSAAPRGPAIAEQGTRDALAARWEASFTQVDVLAAKGPTRDEAGEVERLVRRYLAGRKPLFGLRIEQGRVLDGHGDLLADDVFCLGDGPRILDCLEFDDALRYVDGLDDAAFLAMDLESLGAPESAAFFLAQYGEYSGDPAPPSLWHHYVAYRAFVRAKVSLIQARQGAPGAHATARRLVRMALRHLRASAVGLTLVAGLPGTGKSTLSGALADRLGAVLLSSDRLRKEMAGLSPQQTASADYGEGLYTPEWTARTYAELLDRAAALLALGESVVLDATWIDSAQREAARHTAESAGADLVALHCHVPDDVTAARLSTRAPGASDADLGVAEAMAAEEQPWSGAVGVDTGGSLEAAVGQALAAVRPWGSDQAKVFRRPYMEPDLEHHHHHH	failed
MAESPTEEAATATAGAGAAGPGSSGVAGVVGVSGSGGGFGPPFLPDVWAAAAAAGGAGGPGSGLAPLPGLPPSAAAHGAALLSHWDPTLSSDWDGERTAPQCLLRIKRDIMSIYKEPPPGMFVVPDTVDMTKIHALITGPFDTPYEGGFFLFVFRCPPDYPIHPPRVKLMTTGNNTVRFNPNFYRNGKVCLSILGTWTGPAWSPAQSISSVLISIQSLMTENPYHNEPGFEQERHPGDSKNYNECIRHETIRVAVCDMMEGKCPCPEPLRGVMEKSFLEYYDFYEVACKDRLHLQGQTMQDPFGEKRGHFDYQSLLMRLGLIRQKVLERLHNENAEMDSDSSSSGTETDLHGSLRV	failed
MAESTQMEVETATEGTVPLPPKPTFKPLKAHEMSDGKVQFRKIAVPPNRYSPLKKAWLDIYTPIYDQMKVDIRMNLKARKVELKTRADTPDISNLQKSADFVHAFMLGFDIPDAISLLRMDELYVESFEIKDVKTLKGEHLSRAIGRLSGKGGKTKFAIENSTKTRIVIADTRIHILGAFSNIKVARSSLCSLIMGSPAGKVYSKLRSVSARLNE	failed
MAETNTATSAVNAQITDAVTQVNTKVVGETPAMAMGNLLMSTSHALSNTAHNATAAQQQGQITMQAATVQGVNSLMSVSSAVIGRSSEEVIEKG	failed
MAFAEGALDALKVAFQEGARSLVLLSPVLFRDALLSARLGALRFGLERGGVEGFARVGRALFFGALSAGSEEVYEAWKEGLSEAGLWRWLGRLEALADERRWLRGTAARVLVVQGALDAFTPPLHGAKVADFAKGEALRFVVDEAGHLVPWEAQEEVRDLVADFLLGEGFRPLPGGLAL	failed
MAFASLFTLPDYIAAVLDDVALMTKAAAKKTAGVAGDDLAPNANRVTGVSAERELPIVWPVAKGSFANKPVLVSAALLLSAFLPQLITPLLTAGGIYLCFEGVEKLLHKFLHRHDAHDDGGETAVNEQAKIKGAIRTDFILSAEIIIIALCVVEQYSLMTRSLVMAAIGIGMTVLVYGIVAVIVKLDDLGMLLMRRPQPRPFARFPARATLERWLDRVFRQPRCRAAFRFDCLRPALSLMNRFGRH	failed
